{"source": "the supplement of paper PMC12042874", "note": "± gives the uncertainty stated by the source.", "data": [{"assay": "amyloid nucleation score (Sup35N fusion, yeast selection) (log enrichment); library NNK3; higher = more nucleation; inactive = no reads after selection", "summary_of_the_method": "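For the nucleation score, DiMSum gave the log enrichment of output over input reads, centred on the mode score of non-aggregating sequences. Psi-negative yeast expressing Sup35N fused to peptides of 20 random codons were induced with 100 μM copper sulfate for 24 hours and grown 7 days at 30°C on medium lacking adenine and uracil. Input and output plasmid inserts were Illumina-sequenced, and sequences with under 100 input reads were excluded.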", "values": [{"substance": "VFSKSLGI", "amyloid nucleation score": "inactive"}, {"substance": "VEEYHNQ", "amyloid nucleation score": "0.858 ± 0.13"}, {"substance": "RSANLICLSPLSIIIRDKTL", "amyloid nucleation score": "inactive"}, {"substance": "FQVEKQF", "amyloid nucleation score": "inactive"}, {"substance": "VIFVGFWQWYSYISELDCNP", "amyloid nucleation score": "inactive"}, {"substance": "AHLLETMDTREVFKIR", "amyloid nucleation score": "inactive"}, {"substance": "GVGVMLSYKGIFMHLSFVGE", "amyloid nucleation score": "inactive"}, {"substance": "VSYLVCIDWVCPSGQWNAFW", "amyloid nucleation score": "1.52 ± 0.11"}, {"substance": "QRIEYA", "amyloid nucleation score": "inactive"}, {"substance": "VDNCIWLFLSTFYDGCVVML", "amyloid nucleation score": "inactive"}, {"substance": "IEAEHYCLLLVFLQVGLSSA", "amyloid nucleation score": "inactive"}, {"substance": "WCTAAM", "amyloid nucleation score": "inactive"}, {"substance": "LIFRRCLCNSSCYDLIAGRG", "amyloid nucleation score": "inactive"}, {"substance": "MFSYSNSHFSLRLMWRGLRF", "amyloid nucleation score": "inactive"}, {"substance": "IKLVDLPCSLVNTGSTVNRE", "amyloid nucleation score": "inactive"}, {"substance": "KRYSIMFSKASQ", "amyloid nucleation score": "0.986 ± 0.15"}, {"substance": "FTLFIQVV", "amyloid nucleation score": "inactive"}, {"substance": "GNFKCELVSALSDNIICPYM", "amyloid nucleation score": "inactive"}, {"substance": "TPRLSMDHTFVRWDCV", "amyloid nucleation score": "inactive"}, {"substance": "FMVSRMYEWCVCSVQCLMLF", "amyloid nucleation score": "inactive"}, {"substance": "YFNYSLFISVCS", "amyloid nucleation score": "inactive"}, {"substance": "RDNWSVNLDTKHDLSIAGKL", "amyloid nucleation score": "inactive"}, {"substance": "YFATRDFAWVFENGSIEGAT", "amyloid nucleation score": "inactive"}, {"substance": "HMQTGDDRLMQAAYMHLEHI", "amyloid nucleation score": "inactive"}, {"substance": "EVVSLLTFMLASLLSISVVN", "amyloid nucleation score": "inactive"}, {"substance": "TWLGLLCREGSSNWV", "amyloid nucleation score": "inactive"}, {"substance": "RQWQGNFSSVGFLEIKDALF", "amyloid nucleation score": "inactive"}, {"substance": "SNAFSGLRQLPPSNDSLCKG", "amyloid nucleation score": "inactive"}, {"substance": "YFENLVEVRQIATFKTV", "amyloid nucleation score": "inactive"}, {"substance": "WYPLGRPRVLINYETPTSVM", "amyloid nucleation score": "inactive"}, {"substance": "LILSSCVKGPVSCRPM", "amyloid nucleation score": "inactive"}, {"substance": "LWSIRYFKIS", "amyloid nucleation score": "inactive"}, {"substance": "YGIAMTQTIVSCSEIESKLR", "amyloid nucleation score": "inactive"}, {"substance": "SFSYDTRVDVSAILQSQNSL", "amyloid nucleation score": "inactive"}, {"substance": "SIRLIIKELDGNDTCIGVSG", "amyloid nucleation score": "inactive"}, {"substance": "IAFEVY", "amyloid nucleation score": "inactive"}, {"substance": "TAEKSGVGLFGGTSVFLFES", "amyloid nucleation score": "inactive"}, {"substance": "FICFNFHRKECVEKASSSCK", "amyloid nucleation score": "1.39 ± 0.064"}, {"substance": "SFKKPRPNYLPVFLVYLCNS", "amyloid nucleation score": "inactive"}, {"substance": "SIKLGILEMCKA", "amyloid nucleation score": "inactive"}, {"substance": "TIWSITFLGCKLELTEKCLV", "amyloid nucleation score": "0.979 ± 0.24"}, {"substance": "RYLRKEDDWFIDRAVD", "amyloid nucleation score": "inactive"}, {"substance": "FTQSTCSSHSVLFLMDVTRG", "amyloid nucleation score": "inactive"}, {"substance": "VMCLVSRPPQWSVLDVSTIM", "amyloid nucleation score": "inactive"}, {"substance": "LVFTWYFMCNVMGIFDRGTR", "amyloid nucleation score": "2.06 ± 0.094"}, {"substance": "TAFTYYASVSFVSRL", "amyloid nucleation score": "1.38 ± 0.093"}, {"substance": "PNHELYM", "amyloid nucleation score": "inactive"}, {"substance": "RVYFKTGFPMVLLSKKRGSE", "amyloid nucleation score": "0.952 ± 0.19"}, {"substance": "SFCECFQSSKSCKIWTVWIV", "amyloid nucleation score": "inactive"}, {"substance": "GLCHMFGYDFTSMNCSSPGA", "amyloid nucleation score": "inactive"}, {"substance": "NVWQFRFANRSCWFRLDIVC", "amyloid nucleation score": "inactive"}, {"substance": "SSGSPFNCWHSLHCSSRPFK", "amyloid nucleation score": "inactive"}, {"substance": "MIRRKRNAYMR", "amyloid nucleation score": "inactive"}, {"substance": "QINSSLDMMRHTFCSEGYAV", "amyloid nucleation score": "inactive"}, {"substance": "DVALTWPCYVDTTKCQMIMY", "amyloid nucleation score": "inactive"}, {"substance": "GHQNRTP", "amyloid nucleation score": "inactive"}, {"substance": "YTMLSVCGVYICYKVYSMCW", "amyloid nucleation score": "0.527 ± 0.4"}, {"substance": "NRKRFGEMNGRNYSVQGGRW", "amyloid nucleation score": "inactive"}, {"substance": "TIMCNIWLGFRT", "amyloid nucleation score": "2.01 ± 0.096"}, {"substance": "TIFMWCV", "amyloid nucleation score": "1.64 ± 0.097"}, {"substance": "CRMDGIKGSEIRNADAWAIY", "amyloid nucleation score": "inactive"}, {"substance": "FYIYP", "amyloid nucleation score": "inactive"}, {"substance": "FWTSLPFVGHNNISCRLPTP", "amyloid nucleation score": "inactive"}, {"substance": "IRMIDWILLDAVT", "amyloid nucleation score": "inactive"}, {"substance": "CDVSGSCPGRSPARLKEGSR", "amyloid nucleation score": "inactive"}, {"substance": "MCDGFVVVNLILFWKVEMI", "amyloid nucleation score": "inactive"}, {"substance": "DIFVFILMLRTTDSWVLLS", "amyloid nucleation score": "inactive"}, {"substance": "VKAVLY", "amyloid nucleation score": "inactive"}, {"substance": "GFLKCVGVRLDDSRGVVCAT", "amyloid nucleation score": "inactive"}, {"substance": "CEWNS", "amyloid nucleation score": "inactive"}, {"substance": "HGCYFYYSCTFYC", "amyloid nucleation score": "3.29 ± 0.08"}, {"substance": "TKCVLNGRRLSLCPLDNSMR", "amyloid nucleation score": "inactive"}, {"substance": "CHLPQRP", "amyloid nucleation score": "0.989 ± 0.2"}, {"substance": "PLCVWVWKLRVVFRRLYFEF", "amyloid nucleation score": "inactive"}, {"substance": "NFTVFYLRC", "amyloid nucleation score": "1.67 ± 0.12"}, {"substance": "TPSLAIKK", "amyloid nucleation score": "inactive"}, {"substance": "VILMEDKSLMSWTRTIIVSM", "amyloid nucleation score": "inactive"}, {"substance": "CSIGRSTVDVRWGEGLWNRL", "amyloid nucleation score": "inactive"}, {"substance": "YWSNSYGIECCRLVQQAPTE", "amyloid nucleation score": "-0.132 ± 0.33"}, {"substance": "DSSKV", "amyloid nucleation score": "inactive"}, {"substance": "CWAPHPKDRKPVRGNYSVHN", "amyloid nucleation score": "inactive"}, {"substance": "SRCGSIGGMKG", "amyloid nucleation score": "inactive"}, {"substance": "FKVWCVLSADIQF", "amyloid nucleation score": "inactive"}, {"substance": "LRRGMMARFIVNVVRVN", "amyloid nucleation score": "inactive"}, {"substance": "DYVFPRVYRGS", "amyloid nucleation score": "inactive"}, {"substance": "VQPSFTMYMEFSCACVAMQL", "amyloid nucleation score": "-0.423 ± 0.49"}, {"substance": "VVFWNFTRMLCLG", "amyloid nucleation score": "inactive"}, {"substance": "TCGVVSPRGMSNMLCLGGWS", "amyloid nucleation score": "inactive"}, {"substance": "APWVMLVVSFPRKESRSFGM", "amyloid nucleation score": "inactive"}, {"substance": "HCNFMRFCLRAFSSGMHWLF", "amyloid nucleation score": "inactive"}, {"substance": "TLLSFAHYHHLWSHLVYRSV", "amyloid nucleation score": "inactive"}, {"substance": "PLSTITDGLMRSLVTLVGHS", "amyloid nucleation score": "inactive"}, {"substance": "RLTYIVCSA", "amyloid nucleation score": "inactive"}, {"substance": "HKYSEGSLNTFRRLRRSRFS", "amyloid nucleation score": "inactive"}, {"substance": "FFVFVR", "amyloid nucleation score": "1.3 ± 0.15"}, {"substance": "NLSTFQIYDR", "amyloid nucleation score": "inactive"}, {"substance": "FVLVHSFLECHYIHVTTERL", "amyloid nucleation score": "inactive"}, {"substance": "GNWTQ", "amyloid nucleation score": "inactive"}, {"substance": "ELTEDLVDL", "amyloid nucleation score": "inactive"}, {"substance": "LYCPGYSMKSSVL", "amyloid nucleation score": "inactive"}, {"substance": "TVLCAC", "amyloid nucleation score": "inactive"}, {"substance": "LVNCISIVLFPECNKSLLHR", "amyloid nucleation score": "2.35 ± 0.077"}, {"substance": "LSGNCKYRTLWFIGPYSHFC", "amyloid nucleation score": "inactive"}, {"substance": "FLNVKIQNHWRPYPFSPEYA", "amyloid nucleation score": "1.16 ± 0.092"}, {"substance": "SLSLSIIRAVDFWDMVRGLN", "amyloid nucleation score": "inactive"}, {"substance": "SNSVIW", "amyloid nucleation score": "inactive"}, {"substance": "GIGNCYLMLQTKIFEWFFSE", "amyloid nucleation score": "inactive"}, {"substance": "DWFSMVSRSGVDLKSVKRFG", "amyloid nucleation score": "inactive"}, {"substance": "CIFFWSALARLFFGLFNYPC", "amyloid nucleation score": "inactive"}, {"substance": "PYCNRWFSDRGSWDVHRSWV", "amyloid nucleation score": "inactive"}, {"substance": "EFLQWFDFLQMMAPSLRSAN", "amyloid nucleation score": "inactive"}, {"substance": "VMYVVYFHELVYYR", "amyloid nucleation score": "inactive"}, {"substance": "NYMVFNIGVGCFTISNTK", "amyloid nucleation score": "3.14 ± 0.069"}, {"substance": "IETAGSTHSSTWGDYSNRLC", "amyloid nucleation score": "inactive"}, {"substance": "HIFSKVSYNFEFPRNDCCRY", "amyloid nucleation score": "inactive"}, {"substance": "DTRFWTARLLYFFI", "amyloid nucleation score": "inactive"}, {"substance": "GDLVLASAGYLVFGYLL", "amyloid nucleation score": "inactive"}, {"substance": "GGKQCTPNDTM", "amyloid nucleation score": "-0.186 ± 0.55"}, {"substance": "FMMMYDCNLDCFRHSIEI", "amyloid nucleation score": "inactive"}]}]}
